For this test, the target named is Chaetomium thermophilum Cdc48 (Chaetomium thermophilum). Description: cryo-EM structure.

One may read the stoichiometry N as a count of units in the complex or per binding partner.

As for Chaetomium thermophilum Cdc48 (enzyme), the stoichiometry N was 6.

“Ufd1/Npl4 heterodimer (UN) from Chaetomium thermophilum (complex)”: the stoichiometry N was 1.

Values taken from paper PMC6044470.
